In article PMC7556753, “A double role of the Gal80 N terminus in activation of transcription by Gal4p” (Life Science Alliance, 2020) one finds relative galactokinase activity of KlGal1p with KlGal80-K5A/R6Ap (in % of the activity in the absence of KlGal80p or its peptide), Kd and relative galactokinase activity of KlGal1p with the KlN17G80 peptide alone (in % of the activity in the absence of KlGal80p or its peptide) data, which are given here for 3 molecules.

The target in assay [1] is T1, KlGal1p with N-terminal His6-tag (NHKlGal1p) (Kluyveromyces lactis) (UniProt P09608).
T1 sequence: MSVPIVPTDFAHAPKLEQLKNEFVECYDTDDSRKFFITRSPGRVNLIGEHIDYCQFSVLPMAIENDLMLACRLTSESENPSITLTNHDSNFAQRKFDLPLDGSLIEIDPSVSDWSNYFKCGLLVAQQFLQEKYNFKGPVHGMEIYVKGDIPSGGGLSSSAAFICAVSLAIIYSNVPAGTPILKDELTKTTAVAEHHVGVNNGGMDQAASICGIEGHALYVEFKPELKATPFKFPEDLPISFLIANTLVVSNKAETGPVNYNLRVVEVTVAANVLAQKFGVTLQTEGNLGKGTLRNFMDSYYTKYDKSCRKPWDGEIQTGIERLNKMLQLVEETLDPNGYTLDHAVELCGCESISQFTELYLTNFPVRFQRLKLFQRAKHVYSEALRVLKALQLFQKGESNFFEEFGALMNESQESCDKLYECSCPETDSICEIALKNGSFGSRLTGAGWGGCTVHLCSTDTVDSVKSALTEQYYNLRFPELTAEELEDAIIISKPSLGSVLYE

Assay [2] deals with T1, KlGal1p with N-terminal His6-tag (NHKlGal1p) (Kluyveromyces lactis). Put plainly: galactokinase inhibition titration; 10 nM NHGal1p with increasing concentrations of NHKlGal80p or NHKlGal80-KR56Ap; ADP production coupled to pyruvate kinase and lactate dehydrogenase (NADH consumption); apparent KD from the decline in KlGal1p activity.
Assay [3] concerns the target T2, KlGal1p with N-terminal His6-tag (NHKlGal1p) (Kluyveromyces lactis, UniProt P09608 1-503).
T2 construct: KlGal1p, galactokinase (Gal1 protein) of Kluyveromyces lactis; also called NHGal1p; source: E. coli Rosetta (DE3)-pLys, from pETNHG1, purified as described in Anders et al, 2006b; not shown: His6, N-terminal, kept
T2 sequence (looked up): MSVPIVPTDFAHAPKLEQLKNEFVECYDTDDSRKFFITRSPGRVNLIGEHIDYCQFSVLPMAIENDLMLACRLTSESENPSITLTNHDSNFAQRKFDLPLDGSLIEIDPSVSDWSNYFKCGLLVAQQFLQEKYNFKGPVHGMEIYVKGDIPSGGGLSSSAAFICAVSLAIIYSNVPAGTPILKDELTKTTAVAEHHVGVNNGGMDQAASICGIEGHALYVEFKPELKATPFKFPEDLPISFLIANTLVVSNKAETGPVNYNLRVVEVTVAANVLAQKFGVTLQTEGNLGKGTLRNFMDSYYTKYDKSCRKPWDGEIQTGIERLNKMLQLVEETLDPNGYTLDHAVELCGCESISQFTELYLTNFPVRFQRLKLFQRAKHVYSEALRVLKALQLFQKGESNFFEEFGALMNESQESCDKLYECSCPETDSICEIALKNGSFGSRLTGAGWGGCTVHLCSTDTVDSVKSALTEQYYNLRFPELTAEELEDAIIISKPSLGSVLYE
The assay is described as above. As to conditions: both partners purified.

The molecule “KlGal80-K5A/R6Ap with N-terminal His6-tag (NHKlGal80-K5A/R6Ap) (from UniProt Q06433 1-457) (natural protein)” displayed a relative galactokinase activity of KlGal1p with KlGal80-K5A/R6Ap (in % of the activity in the absence of KlGal80p or its peptide) in assay [1] of 93.6%. In assay [2], the Kd is 3100 nM. As to MNNNKRSKLSTVPSSRP [peptide KlN17G80 (N-terminal 17 residues of KlGal80p)], the relative galactokinase activity of KlGal1p with the KlN17G80 peptide alone (in % of the activity in the absence of KlGal80p or its peptide) in assay [1] was found to be 99.4%.

B1: KlGal80p with N-terminal His6-tag (NHKlGal80p) (natural protein, Kluyveromyces lactis)
chain: MNNNKRSKLSTVPSSRPIRVGFVGLTSGKSWVAKTHFLAIQQLSSQFQIVALYNPTLKSSLQTIEQLQLKHATGFDSLESFAQYKDIDMIVVSVKVPEHYEVVKNILEHSSQNLNLRYLYVEWALAASVQQAEELYSISQQRANLQTIICLQGRKSPYIVRAKELISEGCIGDINSIEISGNGGWYGYERPMRSPEYLYDIESGVNLISNSFGHTIDVLQYITGSYFQKINAMISNNIPTQFLLDENGKRTKETISKTCPDHLLFQGILENGKVPVSCSFKGGTPVKKLTKNLVIDIHGTKGDLKIEGDAGFVEISNLVLYFYGIKNGNGSSNGTDNNGAAAIKDKEKVTKSPSPSTGTSEEEQTMEVFHLRNYNSVVGNILRIYESIADYHFLGKPESKSSRGPDDLFASTKFDKQGFRFEGFPTFKDAIILHRLIDAVFRSDKEEKTLDVSKIMI
notes: KlGal80p, Gal80 protein of Kluyveromyces lactis, wild type; 457 residues by the printed fragment aa 40-457; also called KlGal80p wild-type; source: E. coli Rosetta (DE3)-pLys, from pETNHG80, purified as described in Anders et al, 2006b; not shown: His6, N-terminal, kept
B1: in assay [3], the Kd worked out at 81 nM.
